Our source for the Ka, dH and stoichiometry N values is paper PMC6981324.

What all share (test): ITC
In general terms: ITC needs no label: the signal is the heat of the interaction.

For experiment [1], the target named is double mutant HasR (Arg297Ala/Asn800Ala), DM-HasR (Serratia marcescens).
For experiment [2], the target named is single mutant HasR (Ile671Gly), Ile671Gly-HasR (Serratia marcescens).
Experiment [3] has as its target wild-type HasR (WT-HasR) (Serratia marcescens).

B1: heme-free HasA (apoHasA) (natural protein)
chain: MAFSVNYDSSFGGYSIHDYLGQWASTFGDVNHTNGNVTDANSGGFYGGSLSGSQYAISSTANQVTAFVAGGNLTYTLFNEPAHTLYGQLDSLSFGDGLSGGDTSPYSIQVPDVSFGGLNLSSLQAQGHDGVVHQVVYGLMSGDTGALETALNGILDDYGLSVNSTFDQVAAATAVGVQHADSPELLAA
In the case of B1, in experiment [1], the Ka is 1.53e+07 M⁻¹; the dH is -26 kcal/M; the stoichiometry N (commonly the number of molecules, sites or subunits per partner or assembly) is 1.05. In experiment [2], this molecule yielded a Ka of 1.8e+07 M⁻¹, a dH of -54 kcal/M and a stoichiometry N of 1.06. In experiment [3], this molecule returned a Ka of 1.7e+08 M⁻¹, a dH of -43 kcal/M and a stoichiometry N of 0.92.

B2: heme-loaded HasA (holoHasA) (natural protein)
chain: MAFSVNYDSSFGGYSIHDYLGQWASTFGDVNHTNGNVTDANSGGFYGGSLSGSQYAISSTANQVTAFVAGGNLTYTLFNEPAHTLYGQLDSLSFGDGLSGGDTSPYSIQVPDVSFGGLNLSSLQAQGHDGVVHQVVYGLMSGDTGALETALNGILDDYGLSVNSTFDQVAAATAVGVQHADSPELLAA
In experiment [1], B2 registered a Ka of 2.4e+06 M⁻¹, a dH of -15 kcal/M and a stoichiometry N of 1.02. In experiment [2], the Ka amounted to 9.4e+07 M⁻¹, the dH is -46 kcal/M and the stoichiometry N turned out to be 0.99. In experiment [3], this molecule registered a Ka of 1.1e+06 M⁻¹, a dH of -21 kcal/M and a stoichiometry N of 1.11.
